Data as given in the nanobody polyreactivity screen of Harvey et al. (2022).

Assay: yeast display, Sf9 membrane polyspecificity reagent, FACS + sequencing; frameworks hold sequencing errors
Procedure, shortened: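 Sorting gates, low and high (top ~1%), were placed on anti-HA fluorescence to track expression and on streptavidin fluorescence to track reagent binding. A clone's polyreactivity label is taken from the gate it came out of. The reagent was 10% biotinylated, detergent-solubilized Sf9 membrane, applied for 1 hour at 4 °C to galactose-induced yeast display cells.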

Sequence | polyreactivity (PSR sort gate)
QVQLVESGGGIVQAGGSLRLSCAASGITFGRYVMGWYRQAPGKERELVAAISRSGGSTYYADSVKGRFTISRDNAKNTVYLQMNSLKPEDTAVYYCAADLRQTGYGWYDYWGQGTQVTVSS | high polyreactivity
QVQLVESGGGLVQAGGSLRISCAASGRIFRAYAMGWYRQAPGKERELVADIRSTGSTNYADSVKGRFTISRDNAKNTVYLQMNSLNPEDTAGYYCAARWRSLRFGSGFEYWGQGTQVTVSS | high polyreactivity
QVQLVESGGGLVQAGGSLRLSCAASGRIFGWYAKGWYRQAPGKETELVAAISPGGSTKYADSVKGRFTISRDYAKNTVYLQMNSLKPEDTADYYFAADLFNYTTGRDYWGQGTQVTVSS | low polyreactivity
QVQLVESGGGLVQAGGSLRLSCAASGFIFKQYAMGWYRQAPGKERELVAAISWTGGSTYYADSVKGRFTISRDNAKNTVYLQMNSLKPEDTAVYYCAAKRRTRQSYYTEYYWGQGTQVTVSS | high polyreactivity
QVQLVESGGGLVQAGGSLRLSCAASGRIFSKYGMGWYRQAPGKETEFVAAISGSGTNTYYADSVKGRFTISRDNAKNTVYLQMNSLKPEDTAVYYCAKRKSVRSTPSYEYWGQGTQVTVSS | high polyreactivity
QVQLVESVVGLVQSRVRHPLSCSASGIIFAQNAMGWYRQAPGKERELVARITSSGGGTNYADSVKGRFTISRDNAKNTVYLQMNSLKPEDTAVYYCATRWPYRSDWGQGTQVTVSS | high polyreactivity
QVQLVESVGCLVQAGGSLRLSCAASGFIFDYYAMGRYRHGPGKERELVAGISWSGGSTYYADSVKGRFTISSDNSKNTVYLQMNSLIPEDTAVYYCNAEDSVPFYLYYYWGQGSQVTVSS | low polyreactivity
QVQLVESGGGLVQAGGSLRLSCAASVFIFGYNAMGWYRQAPGKERELVAAISSSGGSTYYADSVKGRFTISRDNAKNTVYLQMNSLKPEDTAVYYCAARPVALRKYDYWGQGTQVTVSS | low polyreactivity
QVQLVESGGGLVQAGGSLRLSCAASGRIFGVYAMGWYRQAPGKDREFVASITRGGGRTYYADSVKGRFTISRDNAKNTVYLQMNSLKPEDTAVYYCNAVVNSYPYYYWGQGTQVTVSS | high polyreactivity
QVQLVESGGGLVQAGGSLRLSCAASGNTFDSYVMGWYRQAPGKERELVAAISYRGGSTYYADSVKGRFTISRDNAKNTVYLQMNSLKPEDSAVYFCAADYFYYVYSYWYDSWGQGTQVTVSS | high polyreactivity
QVQLVESGGGLVQAGGSLRLSCAASGNIFVAYAMGWYRQAPGKERELVAVISNGGRTYYADSVKGRFTISRDKAKNNVYLQMNSLKPADTAVSYCATVAHASYGWHNYWGQGTQVTVSS | high polyreactivity
QVQLVESGGGIVQAGGSLRLSCAASGSTSRDYAMGWYRTAPGKERELVAAITWSGGRTYYADSVKGRFTISRDNAKNTVYLQMNSLKPEDTAVYYCAAYHREGRRDDYWGQGTQVTVSS | low polyreactivity
QVQLVESGGGLVQAGGSLRLSCAASGSIFVDNDMGWYRPAPGKERELVAAIRSSGTSTYYADSVKGRFTISRDNAKNTVYLQMNSLKPEDTAVYYCATRYPRRHVYPKPYYYWGQGTQVTVSS | low polyreactivity
QVHLVESVGGLVQAGGILRLSCAASGFTFYSYAMGCYRQAPGNERELVAAITRSGGNTYYADSVKGRFTISRDNAKNTVYLQMNSLKPEDTAVYYCDATGKRISPSHYYCGQGTQVTVSS | high polyreactivity
QVQVVESGGGLDQAGGSLRLSCAASGSIFQVYSMGWYRQAPGQERALVAAITWAAGSTYADSVKGRFTISRDNAKNTVYLQLKSLKPDDTAVYYCAAYPYVGYVTSSAYDYWGQGTQVTVSS | low polyreactivity
QVQLVESGGGLVQAGGSLRLSCAASGLTFDYYAMGWYRQAPGKERELVAAIDWSGGSTYYADSVKGRFTISRDNAKNTVYLQMNSLKPEDTAVYYCATESDDSGMDYWGQGTQVTVSS | low polyreactivity
QVQLVESGGGLVQAGGSLRLSCAASGSIFYWYAMGWYRQAPGKEREFIADIDWSGGSTYYADSVKGRFTISRDNAKNTVYLQMNSLKPEDTAVYYCAAEARIDIGLYYLDSYYWGQGTQVTVSS | high polyreactivity
QDQLVESGGGLVQAGGSLRLSCAASGNTYLNAMGWYRQAPAKEREMVAAISKGGADTYYADSVKGRFTISRDNAKYTVYLQMNSLKPEDTAVYYCNADYWFRFGSSVDQVTEDYWGQGTQVTVSS | low polyreactivity
QVQLVESGGGLVQPGVSLRLSCAASGRTSSSYTMGWYRQEPRKECELVAAITSGVRTYYADSVKGRFTISRDNAKNTVYLQMKSLKPEDTAVYYCNARYVPYTYCRKYFKPYDYWGLGTQVTVSS | high polyreactivity
QVQLVESGGGLVQAGGSLPLSCAASGSTFTYYAMGWYRKAPGKEGELVARITWTGGRTYYADSVKGRFTISRGNAKNTVYLQMNSVKTEDTAVYYCNALPYFFETQYDYWGQGTQVTVSS | low polyreactivity
QVQLVESGGGLVQAGGSLRLSCAASGRNYVPYAMGWYRQAPGKERELVAALSNSGGSTYYADSVKGRFTISRDNAKNTGYLQRNSLKPEYTAVYFCAPDGRYAYGYNHWGQGTQVTGSS | low polyreactivity
QVQLVESGGGLVQAGGSLRLSCAASGSIFHPYGMGWYRQAPGKERELVAAITSSGGDTYYADSVKGRFTFSRDIAKNTVYLQMISLKPEDTAVYYCAATGLPGYYAYDYWGQGTQVTVSS | low polyreactivity

Sequence | polyreactivity (PSR sort gate)
QVQLVESGGGLVQAGGSLRLSCAASGFIFDNNAMGWYRQAPGKEREFVAAISGSGGSTYYADSVKGRFTISRDNAKNTVYLQMNSLKPEDTAVYYCAAPIPDYTYIYPAYDDYWGQGTQVTVSS | low polyreactivity
QVQLVESGGGLVQAGGSLRLSCAASGRTFTHYAMGWYRQAPGKERELVAAITASGGSTYYADSVKGRFTISRDNAQNTVYLQMNSLKPEDTAVYYCATEANQRTLNDTVKDYDYWGQGTQVTVSS | low polyreactivity
QVQLVESGGGLVQAGGSLRLSCAASGIIFLSYAMGWYRQAPGKERELVAAIRSRGDSTYYADSVKGRFTISRDNAKNTVYLQMNSLKPEDTAVYYCNARQRRYPYGYWGQGTQVTVSS | high polyreactivity
QVQLVESGGGLVQAGGSLRLSCAASGINFVKYTMGWYRQAPGKERELVAAITWTVGSTYYADSVKGRFTISRDNAKNTVYFQMNSLKPEDTAVYYCAARYYYWGQGTQVTGSS | high polyreactivity
QVQLVESGGGLVQAGGSLRISCAASGLTIVPNAMGWYRQAPGKERELVAAISNNGGRTYYADSVKGRFTISRDNAKNTVYLQMNSLKPEDTAVYYCAKYLSPGERHSYDYWGQGTQVTVSS | high polyreactivity
QVQLVESGGGLVQAGGSLRLSCAASGRIFGGYAMGWYRQAPGKERELVAAISSSGGRTYYADSVKGRFTISRDNSKKTVYLQMNSLKPEDTAVYYCNAGAGQRVSGHSFEDWGQGTQVTVSS | high polyreactivity
QFQLQESGGGLVQAGGTLRLSCAASGSIFYVYGKGWYRQAPGKERELVAGINAGTNTNYADSVRGRFTISRDNAKNTVHLQMNSQKPVDTAVYYCAADGNGYQAHEYWGQGTQVTVSS | high polyreactivity
QVQLVESGGGLVQAGGSLRLSCAASGRILLTYAMGWYRQAPGKERELVAAISSDSRTYYADSVKGLFTISRDNAKNTVYLQMNSLKPEDTAVYYCVRRRYKYDYWGQGTQVTVSS | low polyreactivity
QVQLVESGGGLVQAGGSLRLSCAASGRTFGPYVMGGDRQAPGKERELVAGITSGGSTNYADSVKGRFTISRDNAKNTVYRQMNSLKPEDTAVYYCNADYLIYFGLYEYWGHGTQVTVSS | low polyreactivity
QVQLVESGGGLVQAGGSLRLSCAASGIILYRYAMGWYRPAPGKERELVAAISRSGGNTYYADSVKGRFTISRDNAKNTVYLQMNSLKPEDTAVYYCAAKPLQGVRRVEYWGQGTQVTVSS | high polyreactivity
QVQLVESGGGLVQAGGSLRLSCAASGRIFWWYAMGWYRQAPGKERELVAVIDDSGGITYYADSVKGRFTISRDKANNTVYLQMNSLNPEDTAVYYCARNVNAQKVLGGFDSWGQGTQVTVSS | low polyreactivity
QVQLVESGGGLVQAGGSLRLSCAASGRTFSGYTMGWYRQAPGKERELVAGISRSGGRTYYADSVKGRFTISRDNAKKTVYLQMNSLKPEDTAVYYCATPYRRLNTWIYDYWGQGTQVTVSS | high polyreactivity
QVQLVESGGGLVQAGGSLRLSCAASGFTFYRYAMGWYRQAPGKERELVAAISTSGGSTYYADSVKGRFTISRDNAKNTVYLQMNSLKPEDTAVYYCAAELLVYYWGYYYELLDYWGQGTQVSVSS | high polyreactivity
QVQLVESGGGLVQAGGSLSLSCAATGTNFCHNAMGWYRPAPWKERELGAGITSVGSTYFAYSVKGRFTISRDNAKNTVYLQMNSLKPEDTAVYYSAKGYDFRRSYEYWGQGTQVNVSS | low polyreactivity
QVQLVESGGGLVQAGGSLRLSCAASGLIFARYAMGWYRQAPGKERELVAAISSSGVSTDYADSVKGRFTISRDNAKNTVYLQMNSLKPEDTAVYYCAKRTGSRVRGGKYGYWGQGTQVTVSS | high polyreactivity
QVQLVESGGGLVQAGGSLRLSCAASGSTFTSYAMGWYIQAPGKERELVAAIRYRGDGTYYADSVKGRFTISRDNAKNTVYLQMNSLKPEDTAVYYCAADTTLQAFIRYRPIGSYDSWGQGTQVTVSS | low polyreactivity
QVQLVESGGGLVQAGGSLRLSCAASGFIFYEYAMGWYRQAPGKERELVAAISSGGDTNYADSVKGRFTISRDNANNTVYLQMNSLKPEDTAVYYCAKDYSDPGWAEYDYWGQGTQVTVSS | low polyreactivity
QVQLVESGGGLVQAGGSLRLSCAASGSTLHVYVMGWYRQAPGKERELVAAISYSGGITYYADSVKGRFTISRDNAKNTVYLQMNSLKPEDTAVYYCAARIISYRVRGKSRHDYWGQGTQVTVSS | low polyreactivity
QVQLVESGGGLVQAGGSLRLSCAASGFIFAEYAMGWYRQAPGKERELVATINIGGSTYYADSVKGRFTISRDNAKNTVYLQMTSLKPEDTAVYYCAAEFWWGDGSQGIYDYDYWGQGTQVSVSS | low polyreactivity
QVQHVESGGGIVQAGGSLRLSCAASGIIFIGNAMGWYRQAPGKERELVAAITYTGGSTYYADSVKGRFTISRDNAKNTVYLQMNSLKPEDTAVYYCAVDRTHLEDDYWGQGTQVTVSS | low polyreactivity
QVQLVESGGGLVQAGGSLRLSCAASGFIFYYYTMGWYRQAPGKERELVAAISSGGSTYYADSVKGRFTISRDNAKNTVYLQMNSLKPEDTAVYYCNKRYPSPEYNYWGQGTQVTVSS | high polyreactivity
